Assay results published in the nanobody polyreactivity screen of Harvey et al. (2022).

Assay: yeast display, Sf9 membrane polyspecificity reagent, FACS + sequencing; frameworks hold sequencing errors
How it was run: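 Polyreactivity labels are assigned by the sorting gate from which each nanobody was recovered. The gates were low and high (top ~1%), set on anti-HA fluorescence for expression and streptavidin fluorescence for reagent binding. Before sorting, galactose-induced (36–48 hours) yeast display cells were stained for 1 hour at 4 °C with 10% biotinylated, detergent-solubilized Sf9 membrane reagent.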

| Sequence | polyreactivity (PSR sort gate) |
| --- | --- |
| QVQLVESGGGLVQAGGSLRLSCAASGSIFASYAMGWYRQPPGKERELVAAISIGGTTNYADSVKGRFTISRDNAKNTVYLQMYSLKPEDTAVYYCNAGRWLFNYYYWIYDVRYDYWGQGTQVTVSS | high polyreactivity |
| QVQLVESGGGLVQAGGSLRLSCAASGRIFGYNAMGWSRQAPGKERELFAAITTSGGSTYYADSVKGRFTISRDNAKNTVYLQMNSLKPEDTAVYYCARDSLQVFYPYASDDYWGQGTQVTVSS | low polyreactivity |
| QVQLVESGGGLFQAGGSLRLSCAASGLIFGYYDMGWYRQAPGKERELVASISRNGGCTYYADSVKGRFTISRDNAKNTVYLQMNRLKTEDTAVYYCARTGPWARYSHGLYKSDYWGQGTQVTVAS | high polyreactivity |
| QDQLVDSGGGLVQAGGSLRLSCAASGRIFRGNAMGWYRQAPGKERELVAAISNSGGRTYYADSVKGRFTISRDNAKNTVYLQMNSLKPDDTAVSYCAAKAPVIFWDTRIVPGYSGYYYWGQGTQVTVSS | high polyreactivity |
| QVQLVESGGGLVQAGGSLRLSCAASGSIFVYNDMGWYRPAPGKERELVAGIDWSGDRTYADSVKGRFTISRDNAKNTVYLQMNSLKPEDTAVYYCNADEWRWDEIIPYAVDYWGQGTQVTVSS | low polyreactivity |
| QVQRVESGGGLVQAGASLRLSCAASGGIFYRNAMLWYRQAPGKERELVAAISRRAGSTYYADSVKGRFTISRDNAKNTVYLQMNSLKPEDTAVYYCARRVVNVGDADREYWGQGTQVTVSS | high polyreactivity |
| QVQLVESGGGLVQAGGSLRLSCAASGRIFRYYAMGWYRQAPGKERELVAVISSRGGSTFYADSVKGRFTISRDNAKNTVYLQMNSLKPEDTAVYYCASRSLYVGYDYWGQGTQVTVSS | high polyreactivity |
| QVQLVESGGGLVQAGGSLRLSCAASGSIFYFNAMGWYRQAPGKERELVAAITYSGGSTYYADSVKGRFTISRDNAKNTFYLQMNILKPEDTAVYYCAAERRTFPLRIFDYWGQGTQVTVSS | low polyreactivity |
| QVQLVESGGGLVQAGGSLRLSCASSGSTFAIYAMGWYRQAPGKESELVAAITRSGGNAYYADSVKGRFTISRDNAKNTVYLQMNSLKPEDTAVYYCNAETYYWSAYAQYDYWGQGTQVTVSS | high polyreactivity |
| QVQLVESGGGLVQAGGSLRLSCAASGFTFALYAMGWYRQAPGKERELVAAITKGGGSTYYADSVKGRFTISRDNAKITVYLQMNSLKPEDTAVYYCAARGRYSAPDYGYWGQGTQVTVSS | high polyreactivity |
| QDQLVESGGGLVQAGGRLRLSCAAYGRIFRRYAMGWYRQAPGKEREFVAAISSGGSTYYADSVKVRFTISRDNAKKYRLFTAEQPETGRYRGLLLRCVRYDVNVYDYWGQGTQVTVSS | low polyreactivity |
| QVQLVESGGGLVQAGGSLRLSCASSGFIFRYYAMGWYRQAPGKERELVAAISWRGDSTSYADSVKGRFTISRDNAKYTVYLQMNSLKPEDTAVYYCAAGRYLAYLYWGRYEYYYWGQGTQVTVSS | low polyreactivity |
| QVQLVESGGGLVQAGCSLRLSCAASGFTFAKYAMGRYRQAPGKERELVAAITYRDGSTYYADSVKGRFTISRDYAKNTVYLQMNSLKPEDSAVYYCAAVASYVRYGYWGQGTQVTVSS | high polyreactivity |
| QVQLVESGGGLVQAGGSLRLSCAASGSPFVDNDMGWSRQAPGKDRELVAAAITARGGSTYYADSVKGRFTISRDNAKNTVYLQMNSLKPEDTAVYYCAAGRPGELDYWGQGTQVTVSS | low polyreactivity |
| QVQLVESGGGLVQAGGSLRLSCAASGFIFLTNSMGWYRQAPGKERELVAAIRWSDDGTYYADSVKGRFTISRDNAKNTVYLQMNSLKPEDTEVYYCAKEVRNTVTTTGQGTQVTVSS | low polyreactivity |
| QVQIVESGGGLVQAGGSLSLSCAASGRTISWYTMGWYRQAPGKERELVAGISSSGGSTYYADSVKGRFTISRDNAKNTVYLQLNSLKPEDTADYFCAAGDFRYVDRYGDMEYWGQGTQVTVSS | low polyreactivity |
| QVQLVESGGGLVQAGASLRISCAASGYTFYANAMGWYIQAPGKEREFVASITWSGGSTYYADSVKGRFTISRDNAKNTVYLQMNSLKPEDTAVYYCAAESWFKYDYWGQGTQVTLSS | low polyreactivity |
| QVQLVESGAGLVQAGGSLRLSCAASGSIFGRDTMGWYRQAPGKERELVAAINLRGGSTYYADSVKGRFTISRDNAKNTVYLQMNSLKPEDTAVYYCATDGWKQSAYDYWGQGTQVTVSS | low polyreactivity |
| QVQLVESAGGLVQAGGSLRLSCAASGTILWWNAMGRYRPAPGKERELVADITSDGTYADSVKGRFTISRDNAKNTVYLQMNSLKPEDTAVYYCAAVDAYGPGLNGYDYWGQGTQVTVSS | low polyreactivity |
| QVQLVESGGGLVHAGGSLRLSCAASGRIFKSYAMGWYRQAPGKEREFVAAISTRSSSTYYADSVKGRFTISRDNAKNTVYLQMNSLKPEDTAVYYCAKVYQTLPYYYPGDYWGQGTQVNVSS | low polyreactivity |
| QVQLVESGGGLVQAGGSLRLSCAASGSTVAYYAMGWYRQAPGKERELVAAITWNGGRTFYADSVKGRFTISRDNAKNTVYLQMNSLKPEDTAVYYCAAATYQSRYFQRFDYWGQGTQVTVSS | high polyreactivity |
| QLQLGESGGGLVQAGASLRLSFAPSGRLFDRYAMGWYRTAPATERELVASIRSGGSTNYADSVKGRFTISRDNAKNTGYLQMNSLNPEDTAVYYCAAVLRPVRFYSGYYYWGQGTQVTVSS | high polyreactivity |

| Sequence | polyreactivity (PSR sort gate) |
| --- | --- |
| QVQLVESGGGLVLAGGSLRLSCAASGITFFTYTMGWYRQAPGKERELVARIRWDGGSTYYADSVKGRFTISRDNAKNTVYLQMNSLKPEDTAVYYCAADYPYSTYDYWGQGTQVTVSS | low polyreactivity |
| QVQLVESGGGLVQAGGSLRLSCAASGSIFVQYAMGWYRQAPGKERELVATISDDGSTNYADSVKGRFTISRDNAKNTVYLQMNSLKPEDTAVYYCAADTYYYVGADDYWGQGTQVTVSS | low polyreactivity |
| QVQLVESGGGLVQAGGSLRLSCAASGSTSRKYTMGWYRQAPGKERELVATISWSGGSTNYADSVKGRFTISRDNAKNTVYLQMNSLKPEDTAVYYCNAYVSPRYRGSRYYYWGQGTQVTVSS | high polyreactivity |
| QVQLQESGGGLVQAGGSLRLSCAASGNIVDADIMGWYRQEPGKERELVASITDGGSTNYADSVKGRFTISRDNAKNTVYLQMNSLKPEDTAVYYCAAIAYPDIPTYFDYDSEYFYWGQGTQVTVSS | low polyreactivity |
| QVQLVESGGGLVQAGGSLRLSCAASGSIFGTNAMGCYRQAPGKERELVAAIDGGSTTYYADSVKGRFTISRDNAKNTVYLQMNSLKPEDTAVYYCAADGTRSLNYAGYAGYEYWGQGTQVTVSS | low polyreactivity |
| QVQLVESVVGLVQARGTLRLSGATTGNTFYKNTMRWYRQPHGKERELVAAISQRGTRTYYADSVQGRFTISRDYAKNTVYLQMNSLKPEDTAVYYCPTVMSQVGFDYWGQGTQVTVSS | high polyreactivity |
| QVQLVESGGGLVQAGGSLRLSCAASGRTFIHYAMGWSRQAPGKERELVAAISRRGGSTYYADSVKGRFTISRDNAKNTVYLQMNSLKPEDTAVYYCAARLLGITGRTDSGAEGDYWGQGTQVTVSS | high polyreactivity |
| QVQLVESGGGLVQAGGSLRLSCAASGRIFYYYAMGWYRQAPGKERELVAAITRGDSTTYADSVKGRFTISRDNAKNTVYLKMNILKPEDTAVYYCNAGRGTFKRYTALQYWGQGTQVTVSS | low polyreactivity |
| QVQLVESGGGLVQAGGSLRLSCAASGSIFVFYAMGWYRQAPGKERELVAAIDVSDGSTYYADSVKGRFTISRDNAKNTVYLQMNSLKPEDTAVYYCATYVVTYYWWYTYDYWGQGTQVTVSS | low polyreactivity |
| QVLLVESGGGLFQAGGRLRVSCAASGSTLLRYAMGWYRQAPGKERELVAAISGTGSRTYYADSVKGRFTISRDNAKNTVYLKMISLNPEDTAVYYCYACPYRLTEIDYWGQGTPVTVSS | high polyreactivity |
| QVQLVESGGGLVQAGGSLRLSCAPSGLIIWDYVMGWYRQAPGKERELVAAISRSGGRTYYADSVKGRFTISRDNAKNTVYLQMNSLKPEDTAVYYCAARVRFSYASRSGYWGQGTQVTVSS | high polyreactivity |
| QVQLVESGGGLVQAGGSLRLSCAASGLIFHPYTMGWYRQAPGKERELVAAITSTGGSTYYADSVKGRFTISRDNAKNTVYLQMNSLKPEDTAVYYCATDYGYYDYWGQGTQVTVSS | low polyreactivity |
| QVQLVESGGGLVQAGGSLRLTCAASGSIFGPNTMGWYRQAPGKERELVAAIRCGGSTNYADSVKWRFTISRDNAKNTVYLQMNSLKPDDTAVYYCIATWNLFPGVLDRYVYWGQGTQVTVSS | low polyreactivity |
| QVQLVESGGGLVQAGGSLRLSCAASGLTLAPNAMGWYRQSPGKERELVAAITRSGGDTYYADSVKGRFTISRDTAKNTVYLQMNSLKPEDTAVYYCAADYWFRYGTYTGLTSYYYWGQGTQVTVSS | high polyreactivity |
| QVQLVESGGGLVQAGGSLRLTCAASGSIFRINAMGWYRQEPGKEREFVAVITSRTGNTYYADSVKGRFTISRDNAKNTVYLQMNSLKPEDTAVYYCAADYPPARWEMEYWGQGTQVTVSS | low polyreactivity |
| QVQLVESGGGLVQAGGSLRLSCAASVYGMGWYRQAPGKERELVAAISNGGTTYYADSVKGRFTISRDNAKNTVYLQMNSLKPEDTAVYYCAARSWPGGFIYYYWGQGTQVTVSS | low polyreactivity |
| QVQLVESGGGLVQAGGSLRLSCAASGGIFYGYAMGWYRQAPGKERELVASISSDDRTNNADSVKGRFTISRDNAKNTVYLQMNSLKPEDTAVYSCNAELGSDTSNFDYWGQGTQVTVSS | low polyreactivity |
| QFQLVESGGGLVQAGGSLRLSCAASGFNFGWYDMGWYRQAPGKERELVASISWSGSSTYYADSVKGRFTISRDNAKNTVYLQMNSLKPEDTAVYYCATPYWRRYDYWGQGTQVTVSS | high polyreactivity |
| QVQLVESGGGLVQAGGSLRLSCAASGLTFHYYAMGRYRQATGKERELVAVIRGSCTSTYYADSVKGRFTISRDNAKNTVYLQMNSLKPEDTAVYYFAAPYQYRRSGRVLGKYDSRGQGTQVTVSS | high polyreactivity |
| QVQLVESGGGLVQAGGSLRLSWAASGSTFRNYAMGWYRQAPGKEREFVAAISRSGGSTYYADSVKGRFTISRDNANNPVYLQMISLKPEETAVYYCNKESFWGPDNYWGQGTQETVSS | high polyreactivity |
| QVQLVESGGGLVQAGGSLRLSCAASGSTFVANAMGWYRQAPGKERELVAAISGAGGGTYYADSVKGRFTISRDNAKNTVYLQMNSLKPEDTAVYYCAAVPWYYYHYWVSHPYGGDYWGQGTQVTVSS | low polyreactivity |
